Results: ChEMBL document CHEMBL5257037, “Side Chain Cyclized Aromatic Amino Acids: Great Tools as Local Constraints in Peptide and Peptidomimetic Design” (J Med Chem, 2016)

Substrate: CC[C@H](C)[C@H](NC(=O)[C@H](Cc1cnc[nH]1)NC(=O)[C@H](Cc1ccccc1)NC(=O)OCc1ccccc1)C(=O)O
Test: Binding affinity to angiotensin-converting enzyme (unknown origin) assessed as Km
Details: Homo sapiens

B1: Angiotensin-converting enzyme (Homo sapiens), P12821 (protein)
chain: MGAASGRRGPGLLLPLPLLLLLPPQPALALDPGLQPGNFSADEAGAQLFAQSYNSSAEQVLFQSVAASWAHDTNITAENARRQEEAALLSQEFAEAWGQKAKELYEPIWQNFTDPQLRRIIGAVRTLGSANLPLAKRQQYNALLSNMSRIYSTAKVCLPNKTATCWSLDPDLTNILASSRSYAMLLFAWEGWHNAAGIPLKPLYEDFTALSNEAYKQDGFTDTGAYWRSWYNSPTFEDDLEHLYQQLEPLYLNLHAFVRRALHRRYGDRYINLRGPIPAHLLGDMWAQSWENIYDMVVPFPDKPNLDVTSTMLQQGWNATHMFRVAEEFFTSLELSPMPPEFWEGSMLEKPADGREVVCHASAWDFYNRKDFRIKQCTRVTMDQLSTVHHEMGHIQYYLQYKDLPVSLRRGANPGFHEAIGDVLALSVSTPEHLHKIGLLDRVTNDTESDINYLLKMALEKIAFLPFGYLVDQWRWGVFSGRTPPSRYNFDWWYLRTKYQGICPPVTRNETHFDAGAKFHVPNVTPYIRYFVSFVLQFQFHEALCKEAGYEGPLHQCDIYRSTKAGAKLRKVLQAGSSRPWQEVLKDMVGLDALDAQPLLKYFQPVTQWLQEQNQQNGEVLGWPEYQWHPPLPDNYPEGIDLVTDEAEASKFVEEYDRTSQVVWNEYAEANWNYNTNITTETSKILLQKNMQIANHTLKYGTQARKFDVNQLQNTTIKRIIKKVQDLERAALPAQELEEYNKILLDMETTYSVATVCHPNGSCLQLEPDLTNVMATSRKYEDLLWAWEGWRDKAGRAILQFYPKYVELINQAARLNGYVDAGDSWRSMYETPSLEQDLERLFQELQPLYLNLHAYVRRALHRHYGAQHINLEGPIPAHLLGNMWAQTWSNIYDLVVPFPSAPSMDTTEAMLKQGWTPRRMFKEADDFFTSLGLLPVPPEFWNKSMLEKPTDGREVVCHASAWDFYNGKDFRIKQCTTVNLEDLVVAHHEMGHIQYFMQYKDLPVALREGANPGFHEAIGDVLALSVSTPKHLHSLNLLSSEGGSDEHDINFLMKMALDKIAFIPFSYLVDQWRWRVFDGSITKENYNQEWWSLRLKYQGLCPPVPRTQGDFDPGAKFHIPSSVPYIRYFVSFIIQFQFHEALCQAAGHTGPLHKCDIYQSKEAGQRLATAMKLGFSRPWPEAMQLITGQPNMSASAMLSYFKPLLDWLRTENELHGEKLGWPQYNWTPNSARSEGPLPDSGRVSFLGLDLDAQQARVGQWLLLFLGIALLVATLGLSQRLFSIRHRSLHRHSHGPQFGSEVELRHS
For B1, the Km was 0.01 µM.
